# Patent US10772928B2, “Modulation and detection of a neuronal alternative splicing regulatory network for treatment and diagnosis of neurological disorders” (The Governing Council of the University of Toronto, priority 2014, dated 2020)
# T1: nSR100 (Mus musculus, UniProt Q8BKA3)
# T1 construct: host or cells: mouse N2A cells
# T1 sequence (Q8BKA3 1-608): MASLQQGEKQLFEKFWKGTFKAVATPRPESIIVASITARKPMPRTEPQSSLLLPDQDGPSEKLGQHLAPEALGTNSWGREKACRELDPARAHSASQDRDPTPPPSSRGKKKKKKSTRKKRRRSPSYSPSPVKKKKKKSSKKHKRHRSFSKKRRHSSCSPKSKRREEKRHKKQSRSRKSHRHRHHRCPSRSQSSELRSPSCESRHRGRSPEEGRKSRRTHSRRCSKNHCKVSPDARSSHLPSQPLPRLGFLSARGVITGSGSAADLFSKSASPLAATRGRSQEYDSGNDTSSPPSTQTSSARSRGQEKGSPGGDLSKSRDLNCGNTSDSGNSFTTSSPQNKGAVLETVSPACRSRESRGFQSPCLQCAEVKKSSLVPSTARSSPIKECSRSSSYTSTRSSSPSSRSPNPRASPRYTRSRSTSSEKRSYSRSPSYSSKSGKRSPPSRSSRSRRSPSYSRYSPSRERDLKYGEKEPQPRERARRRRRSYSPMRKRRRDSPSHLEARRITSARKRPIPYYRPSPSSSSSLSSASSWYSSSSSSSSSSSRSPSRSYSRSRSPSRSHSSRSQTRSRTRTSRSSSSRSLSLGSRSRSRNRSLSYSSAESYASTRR
# B1: Prpf19 (protein, UniProt Q99KP6 2-504, looked up)
# Pre-mRNA-processing factor 19: SLICSISNEVPEHPCVSPVSNHVYERRLIEKYIAENGTDPINNQPLSEEQLIDIKVAHPIRPKPPSATSIPAILKALQDEWDAVMLHSFTLRQQLQTTRQELSHALYQHDAACRVIARLTKEVTAAREALATLKPQAGLIVPQAVPSSQPSVVGAGEPMDLGELVGMTPEIIQKLQDKATVLTTERKKRGKTVPEELVKPEELSKYRQVASHVGLHSASIPGILALDLCPSDTNKILTGGADKNVVVFDKSTEQILATLKGHTKKVTSVVFHPSQELVFSASPDATIRIWSVPNTSCVQVVRAHESAVTGLSLHATGDYLLSSSDDQYWAFSDIQTGRVLTKVTDETSGCSLTCAQFHPDGLIFGTGTMDSQIKIWDLKERTNVANFPGHSGPITSIAFSENGYYLATAADDSSVKLWDLRKLKNFKTLQLDNNFEVKSLIFDQSGTYLALGGTDVQIYICKQWTEILHFTEHSGLTTGVAFGHHAKFIASTGMDRSLKFYSL
# B2: Csnk1e (protein, UniProt Q9JMK2 1-416, looked up)
# Casein kinase I isoform …: MELRVGNKYRLGRKIGSGSFGDIYLGANIASGEEVAIKLECVKTKHPQLHIESKFYKMMQGGVGIPSIKWCGAEGDYNVMVMELLGPSLEDLFNFCSRKFSLKTVLLLADQMISRIEYIHSKNFIHRDVKPDNFLMGLGKKGNLVYIIDFGLAKKYRDARTHQHIPYRENKNLTGTARYASINTHLGIEQSRRDDLESLGYVLMYFNLGSLPWQGLKAATKRQKYERISEKKMSTPIEVLCKGYPSEFSTYLNFCRSLRFDDKPDYSYLRQLFRNLFHRQGFSYDYVFDWNMLKFGAARNPEDVDRERREHEREERMGQLRGSATRALPPGPPTGATANRLRSAAEPVASTPASRIQQTGNTSPRAISRADRERKVSMRLHRGAPANVSSSDLTGRQEVSRLAASQTSVPFDHLGK
# B3: Cdk11b (protein, UniProt P24788 1-784, looked up)
# Cyclin-dependent kinase 11B: MGDEKDSWKVKTLDEILQEKKRRKEQEEKAEIKRLKNSDDRDSKRDSLEEGELRDHRMEITIRNSPYRREDSMEDRGEEDDSLAIKPPQQMSRKEKAHHRKDEKRKEKRRHRSHSAEGGKHARVKEKEREHERRKRHREEQDKARREWERQKRREMAREHSRRERDRLEQLERKRERERKLREQQKEQREQKERERRAEERRKEREARREVSAHHRTMREEYSDKGKVGHWSRSPLRPPRERFEMGDNRKPVKEEKVEERDLLSDLQDISDSERKTSSAESSSAESGSGSEEEEEEEEEEEEEEGSTSEESEEEEEEEEEEEEEETGSNSEEASEQSAEEVSDEEMSEDEDRENENHILVVPESRFDRDSGDSEEGEEEVGEGTPQSSAPTEGDYVPDSPALSPIELKQELPKYLPALQGCRSVEEFQCLNRIEEGTYGVVYRAKDKKTDEIVALKRLKMEKEKEGFPITSLREINTILKAQHPNIVTVREIVVGSNMDKIYIVMNYVEHDLKSLMETMKQPFLPGEVKTLMIQLLSGVKHLHDNWILHRDLKTSNLLLSHAGILKVGDFGLAREYGSPLKAYTPVVVTLWYRAPELLLGAKEYSTAVDMWSVGCIFGELLTQKPLFPGKSDIDQINKIFKDLGTPSEKIWPGYNDLPAVKKMTFSEYPYNNLRKRFGALLSDQGFDLMNKFLTYYPGRRINAEDGLKHEYFRETPLPIDPSMFPTWPAKSEQQRVKRGTSPRPPEGGLGYSQLGDDDLKETGFHLTTTNQGASAAGPGFSLKF
# B4: Cyfip1 (protein, UniProt Q7TMB8 1-1253, looked up)
# Cytoplasmic FMR1-interacting …: MAAQVTLEDALSNVDLLEELPLPDQQPCIEPPPSSLLYQPNFNTNFEDRNAFVTGIARYIEQATVHSSMNEMLEEGQEYAVMLYTWRSCSRAIPQVKCNEQPNRVEIYEKTVEVLEPEVTKLMNFMYFQRNAIERFCGEVRRLCHAERRKDFVSEAYLITLGKFINMFAVLDELKNMKCSVKNDHSAYKRAAQFLRKMADPQSIQESQNLSMFLANHNKITQSLQQQLEVISGYEELLADIVNLCVDYYENRMYLTPSEKHMLLKVMGFGLYLMDGSVSNIYKLDAKKRINLSKIDKYFKQLQVVPLFGDMQIELARYIKTSAHYEENKSRWTCASSSSSPQYNICEQMIQIREDHMRFISELARYSNSEVVTGSGRQEAQKTDAEYRKLFDLALQGLQLLSQWSAHVMEVYSWKLVHPTDKYSNKDCPDNAEEYERATRYNYTTEEKFALVEVIAMIKGLQVLMGRMESVFNHAIRHTVYAALQDFSQVTLREPLRQAIKKKKNVIQSVLQAIRKTVCDWETGHEPFNDPALRGEKDPKSGFDIKVPRRAVGPSSTQLYMVRTMLESLIADKSGSKKTLRSSLEGPTILDIEKFHRESFFYTHLINFSETLQQCCDLSQLWFREFFLELTMGRRIQFPIEMSMPWILTDHILETKEASMMEYVLYSLDLYNDSAHYALTKFNKQFLYDEIEAEVNLCFDQFVYKLADQIFAYYKVMAGSLLLDKRLRSECKNQGATIHLPPSNRYETLLKQRHVQLLGRSIDLNRLITQRVSAAMYKSLELAIGRFESEDLTSVVELDGLLEINRMTHKLLSRYLTLDSFDAMFREANHNVSAPYGRITLHVFWELNYDFLPNYCYNGSTNRFVRTVLPFSQEFQRDKQPNAQPQYLHGSKALNLAYSSIYGSYRNFVGPPHFQVICRLLGYQGIAVVMEELLKVVKSLLQGTILQYVKTLMEVMPKICRLPRHEYGSPGILEFFHHQLKDIVEYAELKTVCFQNLREVGNAVLFCLLIEQSLSLEEVCDLLHAAPFQNILPRIHVKEGERVDAKMKRLESKYAPLHLVPLIERLGTPQQIAIAREGDLLTKERLCCGLSMFEVILTRIRTFLDDPIWRGPLPSNGVMHVDECVEFHRLWSAMQFVYCIPVGTHEFTVEQCFGDGLHWAGCMIIVLLGQQRRFAVLDFCYHLLKVQKHDGKDEIIKNVPLKKMVERIRKFQILNDEIITILDKYLKSGDGESTPVEHVRCFQPPIHQSLASS
# B5: Tpi1 (protein, UniProt P17751 2-249, looked up)
# Triosephosphate isomerase: APTRKFFVGGNWKMNGRKKCLGELICTLNAANVPAGTEVVCAPPTAYIDFARQKLDPKIAVAAQNCYKVTNGAFTGEISPGMIKDLGATWVVLGHSERRHVFGESDELIGQKVSHALAEGLGVIACIGEKLDEREAGITEKVVFEQTKVIADNVKDWSKVVLAYEPVWAIGTGKTATPQQAQEVHEKLRGWLKSNVNDGVAQSTRIIYGGSVTGATCKELASQPDVDGFLVGGASLKPEFVDIINAKQ
# B6: Tfip11 (protein, UniProt Q9ERA6 1-838, looked up)
# Tuftelin-interacting protein …: MSLSHLYRDGEGHLDDDDDDERENFEITDWDLQNEFNPNRQRHWQTKEEATYGVWAERDSDEERPSFGGKRARDYSAPVNFISAGLKKGAAEEADSEDSDAEEKPVKQEDFPKDLGPKKLKTGGNFKPSQKGFSGGTKSFMDFGSWERHTKGIGQKLLQKMGYVPGRGLGKNAQGIINPIEAKQRKGKGAVGAYGSERTTQSLQDFPVADSEEEAEEEFQKELSQWRKDPSGSKKKPKYSYKTVEELKAKGRVSKKLTAPQKELSQVKVIDMTGREQKVYYSYSQISHKHSVPDEGVPLLAQLPPTAGKEARMPGFALPELEHNLQLLIERTEQEIIQSDRQLQYERDMVVSLSHELEKTAEVLAHEERVISNLSKVLALVEECERRMQPHGADPLTLDECARIFETLQDKYYEEYRLADRADLAVAIVYPLVKDYFKDWHPLEDGSYGTQIISKWKSLLENDQLLSHSSQDLSSDAFHRLMWEVWMPFVRNVVAQWQPRNCEPMVDFLDSWAHIIPVWILDNILDQLIFPKLQKEVDNWNPLTDTVPIHSWIHPWLPLMQARLEPLYSPVRSKLSSALQKWHPSDASAKLILQPWKEVLTPGSWEAFMLRNIVPKLGMCLGELVINPHQQHMDAFYWVMDWEGMISVSSLVGLLEKHFFPKWLQVLCSWLSNSPNYEEITKWYLGWKSMFSDQVLAHPSVKDKFNEALDIMNRAVSSNVGAYMQPGARENIAYLTHTERRKDFQYEAMQERREAENMAQRGIGVAASSVPMNFKDLIETKAEEHNIVFMPVIGKRHEGKQLYTFGRIVIYIDRGVVFVQGEKTWVPTSLQSLIDMAK
# Target: T1, nSR100
# Test: AP-MS nSR100 interaction partners from mouse N2A cells (Table 5)
# Format: binding
# Conditions: for AvgP (average of the SAINT scores) / MaxP (maximal SAINT score): bait Srrm4; for FoldChange between the prey Avg spectra of the bait and control purifications: bait Srrm4, 0.1 added to prevent division by 0; for AvgSpec (average number of spectra per replicate): bait Srrm4, 2 replicates; for Spectra (number of spectra for the prey in the purification of the bait): AP-MS; for SpecSum: bait Srrm4, sum of spectra over 2 replicates
# [1] = bait Srrm4, biological replicate 1 (first number of the cell)
# [2] = bait Srrm4, biological replicate 2 (second number of the cell)
# Excerpt: By applying affinity purification coupled to mass-spectrometry (AP-MS), several interaction nSR100 partner proteins were detected that provide insight into mechanisms of post-translational regulation of nSR100 levels.
Molecule,AvgP (average of the SAINT scores),MaxP (maximal SAINT score),FoldChange between the prey Avg spectra of the bait and control purifications,AvgSpec (average number of spectra per replicate),Spectra (number of spectra for the prey in the purification of the bait) [1],Spectra (number of spectra for the prey in the purification of the bait) [2],SpecSum
B1,0.91,1,5.71,20,11,29,40
B2,0.91,0.96,7,7,6,8,14
B3,0.9,0.98,3.43,12,13,11,24
B4,0.89,1,5.5,11,7,15,22
B5,0.87,0.87,3.33,10,10|10,10|10,20
B6,1,1,40,4,5,3,8
